# In patent US8304519B2, “Compositions and methods for modulating dopamine neurotransmission” (Centre for Addiction and Mental Health, priority 2005, dated 2012):
# Tests used:
# D2 receptor [1] = biological target: T1, D2 receptor (Homo sapiens, UniProt P14416); experiment: Cell-ELISA of DAT membrane expression on D2 activation in cultured midbrain neurons; format: cell-based, rat; set-up: expressed in transfected cells; host or cells: primary rat midbrain neuronal cultures, adenoviral infection; conditions: cultured midbrain neurons infected with D2 and DAT adenoviruses
# T1 sequence (P14416 1-414 isoform P14416-2): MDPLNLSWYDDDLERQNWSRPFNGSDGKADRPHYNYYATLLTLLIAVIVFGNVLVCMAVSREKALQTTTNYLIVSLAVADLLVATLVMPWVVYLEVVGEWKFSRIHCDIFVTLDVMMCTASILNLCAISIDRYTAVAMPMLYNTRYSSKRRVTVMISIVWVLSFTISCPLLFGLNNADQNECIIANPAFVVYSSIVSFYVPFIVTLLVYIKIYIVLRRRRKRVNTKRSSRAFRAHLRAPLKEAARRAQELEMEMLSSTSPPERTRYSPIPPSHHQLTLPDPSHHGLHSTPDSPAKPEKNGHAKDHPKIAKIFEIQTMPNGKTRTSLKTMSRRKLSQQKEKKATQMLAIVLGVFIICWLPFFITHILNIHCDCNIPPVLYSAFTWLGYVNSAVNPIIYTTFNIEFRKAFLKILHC
# Method: Cell-ELISA assays (colorimetric assays) were done essentially as previously described (Lee et al., 2002a). Neurons or HEK-293T cells were transiently transfected with the indicated cDNA constructs by the Lipofectamine 2000 (InVitrogen) method (6-10 μg of each indicated cDNA per 7.5×10^6 cells), and equally distributed to two 6-well plates (35 mm/well), and grown for 2-4 days. The same density of co-transfected cells were fixed in 4% paraformaldehyde for 10 min in the absence (non-permeabilized conditions) or the presence (permeabilized conditions) of 1% Triton X-100. Cells were incubated with DAT antibody against the extracellular loop (Chemicon) for the purpose of labeling the proteins on the cell surface under non-permeabilized conditions or the entire transporter pool under permeabilized conditions. […] The cell surface expression of DAT was presented as the ratio of colorimetric readings under non-permeabilized conditions to those under permeabilized conditions. […]
# (§1) Midbrain cultures from postnatal day 2 rats are prepared by dissection of ventrolateral sections of the mesencephalon (avoiding medial tissue regions) in ice-cold HBSS. […] The single cell suspensions are counted with a hemocytometer for plating at desired densities onto poly-D-Lysine (100 ug/mL) coated tissue culture plates of varying formats or, onto coated glass cover-slips for microscopy. […]
# D2 receptor [2] = biological target: T1, D2 receptor; format: cell-based; set-up: expressed in transfected cells; host or cells: HEK-293 cells co-expressing D2 and DAT; conditions: pre-incubation 150-200 ng/ml, HEK-293 cells co-expressing D2 and DAT
# Method: Measurement of DA uptake was performed on intact cells as previously described (30). Briefly, 2-4 days following transfection in 24-well plates (˜2×10^5 cells seeded per well) medium was removed and wells were rinsed with 0.5 mL of uptake buffer (5 mM Tris, 7.5 mM HEPES, 120 mM NaCl, 5.4 mM KCl, 1.2 mM CaCl2, 1.2 mM MgSO4, 1 mM ascorbic acid, 5 mM glucose, pH 7.1). […] Wells were rinsed twice with 0.5 mL of uptake buffer and cells were solubilized in 0.5 mL of 1% SDS and collected to measure incorporated radioactivity using a Beckman liquid scintillation counter (LS 6000SC).
# D2 receptor [3] = biological target: T1, D2 receptor; experiment: DA uptake on D2 activation in cultured midbrain neurons infected with D2 and DAT adenoviruses; format: cell-based, rat; set-up: expressed in transfected cells; host or cells: primary rat midbrain neuronal cultures, adenoviral infection
# Method: (§2) Measurement of DA uptake was performed on intact cells as previously described (30). Briefly, 2-4 days following transfection in 24-well plates (˜2×10^5 cells seeded per well) medium was removed and wells were rinsed with 0.5 mL of uptake buffer (5 mM Tris, 7.5 mM HEPES, 120 mM NaCl, 5.4 mM KCl, 1.2 mM CaCl2, 1.2 mM MgSO4, 1 mM ascorbic acid, 5 mM glucose, pH 7.1). Cells were then preincubated in duplicate with the indicated concentrations of dopaminergic agents (10^−13 to 10^−4 M) 5 min prior to the addition of 0.25 mL of 20 nM [3H]DA (final concentration) and incubated for 10 min at room temperature in a total volume of 0.5 mL. Nonspecific [3H] DA (37-53 Ci/mmol) uptake was defined in the presence of 10 μM mazindol. Wells were rinsed twice with 0.5 mL of uptake buffer and cells were solubilized in 0.5 mL of 1% SDS and collected to measure incorporated radioactivity using a Beckman liquid scintillation counter (LS 6000SC).
# as §1
# D2 receptor [4] = biological target: T1, D2 receptor; experiment: cAMP accumulation in cells co-expressing D2 with DAT; format: cell-based; set-up: expressed in transfected cells; host or cells: HEK-293 cells co-expressing D2 and DAT; conditions: data not shown
# [35S]-D2[IL3-2] = biological target: T2, [35S]-D2[IL3-2] (Homo sapiens, UniProt P14416); experiment: In vitro binding assay of GST-DAT fusion proteins with [35S]-D2[IL3-2] probe; conditions: autoradiography
# T2 construct: made in house
# T2 sequence (P14416 271-373): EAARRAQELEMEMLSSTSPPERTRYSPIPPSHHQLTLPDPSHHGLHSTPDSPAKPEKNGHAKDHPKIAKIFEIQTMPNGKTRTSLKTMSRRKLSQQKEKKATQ
# Method: (§3) Glutathione beads carrying GST fusion proteins (DAT[NT1] (SEQ ID NO:7), DAT[NT2] (SEQ ID NO:9), DAT[NT3] (SEQ ID NO: 10)) or GST (10-20 μg each) alone was incubated with [35S]-methionine-labelled D2[IL3-2] probe (SEQ ID NO:3) respectively. The beads were then washed 4-6 times with PBS containing 0.5% Triton X-100 and eluted with 10 mM glutathione elution buffer. Eluates were separated by SDS-PAGE and visualized by autoradiography.
# [5] = systemically injected; cited from earlier work
# [6] = Amphetamine-induced hyper-locomotor activity; format: in vivo; conditions: ip injection, 3 nmol/g
# Method: Tests of locomotor activity were conducted in four clear Plexiglas activity chambers (Med Associates Inc., St Albans, Vt.) measuring 43 cm long, 43 cm wide, and 30 cm high. An array of 16×16 photodetectors, spaced 2.5 cm apart, and positioned 2.5 cm above the floor of the chamber was used to detect horizontal locomotor activity as distance traveled. Prior to testing, all mice were first habituated to the apparatus by placing them in the activity chambers for 1 h on three consecutive days. On test days, mice were placed in the activity chamber for 1 h prior to receiving an IP injection of TAT (SEQ ID NO:14), TAT-DAT[NT1-1] (SEQ ID NO:12), or TAT-DAT[NT1-2] peptide (SEQ ID NO: 13). Locomotor activity was then measured for the next 180 min.
# D2-DAT coupling = biological target: T3, D2-DAT coupling (Homo sapiens, UniProt P14416); experiment: [3H]DA uptake in rat midbrain primary cultures infected with DAT and D2 adenovirus; format: cell-based; conditions: 10 μM for 30 minutes, cultured neurons
# T3 construct: expressed in transfected cells; host or cells: primary rat midbrain neuronal cultures, adenoviral infection
# T3 sequence (P14416 1-414 isoform P14416-2): as the sequence (P14416 1-414 isoform P14416-2) above
# Method: as §2, with “Cells were then preincubated in duplicate with the indicated concentrations of dopaminergic agents (10^−13 to 10^−4 M) 5 min prior to the addition of 0.25 mL of 20 nM [3H]DA” left out
# Midbrain cultures from postnatal day 2 rats are prepared by dissection of ventrolateral sections of the mesencephalon (avoiding medial tissue regions) in ice-cold HBSS. Tissue is placed in cold neurobasal/B27 medium (Invitrogen) supplemented with 0.5 mM L-glutamine, and 10 ng/mL bFGF (culture medium). […] The single cell suspensions are counted with a hemocytometer for plating at desired densities onto poly-D-Lysine (100 ug/mL) coated tissue culture plates of varying formats or, onto coated glass cover-slips for microscopy. […]
# [7] = biological target: T4, D2-DAT direct interaction (Homo sapiens, UniProt P14416); experiment: In vitro binding assay, blockade of GST-DAT[NT1] binding to [35S]-D2[IL3-2] by peptides; conditions: co-incubation with purified peptide
# T4 construct: made in house; host or cells: bacteria (GST fusion, pGEX4T-3)
# T4 sequence (P14416 271-373): T2 sequence (P14416 271-373)
# Method: as §3
substance,measurement,setting,value
pertussis toxin (PTX),blockade of inhibition of DAT membrane expression by activation of D2 receptor,D2 receptor [1],blocked
same,blockade of quinpirole-induced decrease in DAT-mediated DA uptake,D2 receptor [2],blocked
same,blockade of inhibition of DAT-mediated DA uptake by activation of D2 receptor,D2 receptor [3],blocked
same,functional block of the ability of the D2 receptor to inhibit cAMP accumulation,D2 receptor [4],confirmed
"GST fused DAT[NT1]: GST fusion protein encoding DAT M1-P26, MSKSKCSVGLMSSVVAPAKEPNAVGP (SEQ ID NO:7)",hybridization (direct binding) with [35S]-D2[IL3-2],[35S]-D2[IL3-2],hybridized
Tyr-Gly-Arg-Lys-Lys-Arg-Arg-Gln-Arg-Arg-Arg [TAT peptide],time after IP injection at which the blood-brain barrier is penetrated,[5],1 h
TAT-DAT[NT1-2] peptide: DAT[NT1-2] (A16-P26) peptide fused to HIV-1 TAT cell-membrane transduction domain (SEQ ID NO:13) (YGRKKRRQRRRAPAKEPNAVGP; HIV virus type 1 TAT protein fused to human dopamine transporter protein (TAT-DAT[NT1-2])),behavioural effects of amphetamine (hyper-locomotor activity),[6],reduce
same,DAT-mediated DA uptake,D2-DAT coupling,did not produce any effects
"DAT[NT1-1] (M1-V15) peptide: purified peptide DAT M1-V15, MSKSKCSVGLMSSVV (SEQ ID NO:2) (Human dopamine transporter protein (DAT[NT1-1] M1-V15))",disruption of the interaction between [35S]-D2[IL3-2] and GST fused DAT[NT1],[7],disrupted
